Reference: the RNAGym collection of RNA variant scans (doi:10.7554/elife.90254)

B1: LINE1-full (parent)
chain: UACGUAGGUGGUUUUCCCCUGAUAGUGCUAAGGGGGCCUGGAAGUUUGGACUGGGCAGAGCUCAACACAGCGUGGCAAAGUGGCUGUGGCUAGACUGCCUCUCUGGAUUCCUCGUCACUCAGCAGGGCAUCUCUGAGAGAAAUGCC

Variants of: B1
Assay: self-cleavage, relative activity (ratio to wild type); higher = more cleavage; in vitro, sequencing; the parent is a self-cleaving ribozyme

In order of rising self-cleavage:
1. UACGUAGGUGGUUUUCCCCUGAUAGUGCUAAGGGGGCCUGGAAGUUUGGACUGGGCAGAGCUCAACACAGCGUGGCGAAGUGGCUGUGGCUAGACUGCCUCUCUGGAUGCCUCGUCACUCAGCAGGGCAUCUCUGAGAGAAAUGCC [A77G U109G]  0
2. UACGUAGGUGGUUUUCCCCUGAUAGUGCUAAGGGGGCCUGGAAGUUUGGACUGGGCAGAGCUCAACACAGCGUGGCGAAGUGGCUGUGACUAGACUGCCUCUCUGGAUUCCUCGUCACUCAGCAGGGCAUCUCUGAGAGAAAUGCC [A77G G89A]  0.03
3. UACGUAGGUGGUUUUCCCCUGAUAGUGCUAAGGGGGCCUGGAAGUUUGGACUGGGCAGAGCUCAACACAGCGUGGCUAAGUGGCUGUGGCUGGACUGCCUCUCUGGAUUCCUCGUCACUCAGCAGGGCAUCUCUGAGAGAAAUGCC [A77U A92G]  0.05
4. UACGUAGGUGGUUUUCCCCUGAUAGUGCUAAGGGGGCCUGGAAGUUUGGACUGGGCAGAGCUCAACACAGCGUGGCGAAGUGGCUGUGGCUAUACUGCCUCUCUGGAUUCCUCGUCACUCAGCAGGGCAUCUCUGAGAGAAAUGCC [A77G G93U]  0.05
5. UACGUAGGUGGUUUUCCCCUGAUAGUGCUAAGGGGGCCUGGAAGUUUGGACUGGGCAGAGCUCAACACAGCGUGGCGAAGUGGCUGUGGCUAGACUUCCUCUCUGGAUUCCUCGUCACUCAGCAGGGCAUCUCUGAGAGAAAUGCC [A77G G97U]  0.08
6. UACGUAGGUGGUUUUCCCCUGAUAGUGCUAAGGGGGCCUGGAAGUUUGGACUGGGCAGAGCUCAACACAGCGUGGCGAAGUGGCUGUAGCUAGACUGCCUCUCUGGAUUCCUCGUCACUCAGCAGGGCAUCUCUGAGAGAAAUGCC [A77G G88A]  0.09
7. UACGUAGGUGGUUUUCCCCUGAUAGUGCUAAGGGGGCCUGGAAGUUUGGACUGGGCAGAGCUCAACACAGCGUGGCGAAGUGGCUGUGGCUAGACAGCCUCUCUGGAUUCCUCGUCACUCAGCAGGGCAUCUCUGAGAGAAAUGCC [A77G U96A]  0.13
8. UACGUAGGUGGUUUUCCCCUGAUAGUGCUAAGGGGGCCUGGAAGUUUGGACUGGGCAGAGCUCAACACAGCGUGGCUAAGUGGCUGUGGCUAGGCUGCCUCUCUGGAUUCCUCGUCACUCAGCAGGGCAUCUCUGAGAGAAAUGCC [A77U A94G]  0.24
9. UACGUAGGUGGUUUUCCCCUGAUAGUGCUAAGGGGGCCUGGAAGUUUGGACUGGGCAGAGCUCAACACAGCGUGGCUAAGUGGCUGUGGCUAGACUGCCUCUCUGGUUUCCUCGUCACUCAGCAGGGCAUCUCUGAGAGAAAUGCC [A77U A107U]  0.62
10. UACGUAGGUGGUUUUCCCCUGAUAGUGCUAAGGGGGCCUGGAAGUUUGGACUGGGCAGAGCUCAACACAGCGUGGCUAAGUGGCUGUGGCUUGACUGCCUCUCUGGAUUCCUCGUCACUCAGCAGGGCAUCUCUGAGAGAAAUGCC [A77U A92U]  0.63
11. UACGUAGGUGGUUUUCCCCUGAUAGUGCUAAGGGGGCCUGGAAGUUUGGACUGGGCAGAGCUCAACACAGCGUGGCGAAGUGGCUGUGGCUAGACUCCCUCUCUGGAUUCCUCGUCACUCAGCAGGGCAUCUCUGAGAGAAAUGCC [A77G G97C]  0.65
12. UACGUAGGUGGUUUUCCCCUGAUAGUGCUAAGGGGGCCUGGAAGUUUGGACUGGGCAGAGCUCAACACAGCGUGGCUGAGUGGCUGUGGCUAGACUGCCUCUCUGGAUUCCUCGUCACUCAGCAGGGCAUCUCUGAGAGAAAUGCC [A77U A78G]  0.68
13. UACGUAGGUGGUUUUCCCCUGAUAGUGCUAAGGGGGCCUGGAAGUUUGGACUGGGCAGAGCUCAACACAGCGUGGCUAAGUGGCUGUGGCUAGACUGCCUCUCUGGAUUCCUCGUCACUCAGCAGGGCAUCUCUGUGAGAAAUGCC [A77U A136U]  0.75
14. UACGUAGGUGGUUUUCCCCUGAUAGUGCUAAGGGGGCCUGGAAGUUUGGACUGGGCAGAGCUCAACACAGCGUGGCUAAGUGGCUGUGGCUAGACUGCCUCUCUGGAUUUCUCGUCACUCAGCAGGGCAUCUCUGAGAGAAAUGCC [A77U C110U]  0.94
15. UACGUAGGUGGUUUUCCCCUGAUAGUGCUAAGGGGGCCUGGAAGUUUGGACUGGGCAGAGCUCAACACAGCGUGGCUAAGUGGCUGUGGCUAGACUGCCUCUCUGGAUUCCUCGUCACUCAGCAGGGCAUCUCUGAGAGAAAUGCC [A77U]  1.21
16. UACGUAGGUGGUUUUCCCCUGAUAGUGCUAAGGGGGCCUGGAAGUUUGGACUGGGCAGAGCUCAACACAGCGUGGCUAAGUGGCUGUGGCUAGACUGCCUCUCUGGAUUCCUCGUCACUCAGCAGGGCAUCUCUGAGAGUAAUGCC [A77U A140U]  1.23
17. UACGUAGGUGGUUUUCCCCUGAUAGUGCUAAGGGGGCCUGGAAGUUUGGACUGGGCAGAGCUCAACACAGCGUGGCUAAGUGGCUGUGGCUAGACUGCCUCUCUGGAUUCCUCGUCACUCAGCAGGGCUUCUCUGAGAGAAAUGCC [A77U A129U]  1.24
18. UACGUAGGUGGUUUUCCCCUGAUAGUGCUAAGGGGGCCUGGAAGUUUGGACUGGGCAGAGCUCAACACAGCGUGGCUAAGUGGCUGUGGCUAGACUGCCUCUCUGGAUUCCUCGUCACUCAGCUGGGCAUCUCUGAGAGAAAUGCC [A77U A124U]  1.27
19. UACGUAGGUGGUUUUCCCCUGAUAGUGCUAAGGGGGCCUGGAAGUUUGGACUGGGCAGAGCUCAACACAGCGUGGCUAAGUGGCUGUGGCUAGACUGCCUCUCUGGAUUCCUCGUCACUCAGCAGGGCAUCUCUGAGUGAAAUGCC [A77U A138U]  1.27
20. UACGUAGGUGGUUUUCCCCUGAUAGUGCUAAGGGGGCCUGGAAGUUUGGACUGGGCAGAGCUCAACACAGCGUGGCUAAGUGGCUGUGGCUAGACUGCCUCUCUGGAUUCCUCGUCACUCAGCAGGGCAUCUCUGAGAGGAAUGCC [A77U A140G]  1.37
21. UACGUAGGUGGUUUUCCCCUGAUAGUGCUAAGGGGGCCUGGAAGUUUGGACUGGGCAGAGCUCAACACAGCGUGGCUAGGUGGCUGUGGCUAGACUGCCUCUCUGGAUUCCUCGUCACUCAGCAGGGCAUCUCUGAGAGAAAUGCC [A77U A79G]  1.48
22. UACGUAGGUGGUUUUCCCCUGAUAGUGCUAAGGGGGCCUGGAAGUUUGGACUGGGCAGAGCUCAACACAGCGUGGCUAAGUGGCUGUGGCUAGACUGCCUCUCUGGAUUCCUCGUCACUCAGCCGGGCAUCUCUGAGAGAAAUGCC [A77U A124C]  1.49
23. UACGUAGGUGGUUUUCCCCUGAUAGUGCUAAGGGGGCCUGGAAGUUUGGACUGGGCAGAGCUCAACACAGCGUGGCUAAGUGGCUGUGGCUAGACUGCCUCUCUGGAUUCCUCGUCACUCGGCAGGGCAUCUCUGAGAGAAAUGCC [A77U A121G]  1.6
24. UACGUAGGUGGUUUUCCCCUGAUAGUGCUAAGGGGGCCUGGAAGUUUGGACUGGGCAGAGCUCAACACAGCGUGGCGAAGUGGCUGUGGCUAGACUGCCUCUCAGGAUUCCUCGUCACUCAGCAGGGCAUCUCUGAGAGAAAUGCC [A77G U104A]  1.64
25. UACGUAGGUGGUUUUCCCCUGAUAGUGCUAAGGGGGCCUGGAAGUUUGGACUGGGCAGAGCUCAACACAGCGUGGCGAAGUGACUGUGGCUAGACUGCCUCUCUGGAUUCCUCGUCACUCAGCAGGGCAUCUCUGAGAGAAAUGCC [A77G G83A]  1.75
26. UACGUAGGUGGUUUUCCCCUGAUAGUGCUAAGGGGGCCUGGAAGUUUGGACUGGGCAGAGCUCAACACAGCGUGGCUAAGUGGCUGUGGCUAGACUGCCUCUCUGGAUUCCUCGUCACUCAGCAGGGCAUCUCUGAGGGAAAUGCC [A77U A138G]  1.75
27. UACGUAGGUGGUUUUCCCCUGAUAGUGCUAAGGGGGCCUGGAAGUUUGGACUGGGCAGAGCUCAACACAGCGUGGCGAAGUGGCUGUGGCUAGACUGCCACUCUGGAUUCCUCGUCACUCAGCAGGGCAUCUCUGAGAGAAAUGCC [A77G U100A]  1.93
28. UACGUAGGUGGUUUUCCCCUGAUAGUGCUAAGGGGGCCUGGAAGUUUGGACUGGGCAGAGCUCAACACAGCGUGGCGAAGUGGCUGUGGCUAGACUGCCUCUCUGGAUUCCUCGUCACUCAGCAGGGCAUCUUUGAGAGAAAUGCC [A77G C133U]  1.99
29. UACGUAGGUGGUUUUCCCCUGAUAGUGCUAAGGGGGCCUGGAAGUUUGGACUGGGCAGAGCUCAACACAGCGUGGCGAAGUGGCUGUGGCUAGACUGCCUCUCUGGAUUCCUCGCCACUCAGCAGGGCAUCUCUGAGAGAAAUGCC [A77G U115C]  2.05
30. UACGUAGGUGGUUUUCCCCUGAUAGUGCUAAGGGGGCCUGGAAGUUUGGACUGGGCAGAGCUCAACACAGCGUGGCGAAGUGGCUGUGGCUAGACUGCCUCUCUGGAUUCCUCGACACUCAGCAGGGCAUCUCUGAGAGAAAUGCC [A77G U115A]  2.25
31. UACGUAGGUGGUUUUCCCCUGAUAGUGCUAAGGGGGCCUGGAAGUUUGGACUGGGCAGAGCUCAACACAGCGUGGCGAAGUGGCUGUGGCUAGACUGCCUCUCUGGAUUCCUCGUCACUCAGCAGGGCAUCACUGAGAGAAAUGCC [A77G U132A]  2.34
32. UACGUAGGUGGUUUUCCCCUGAUAGUGCUAAGGGGGCCUGGAAGUUUGGACUGGGCAGAGCUCAACACAGCGUGGCGAAGUGGCUGUGGCUAGACUGCCUCUCUGGAUUCCUCGUCACUCAGCAGGGCAUCUCUGAGAUAAAUGCC [A77G G139U]  2.41
33. UACGUAGGUGGUUUUCCCCUGAUAGUGCUAAGGGGGCCUGGAAGUUUGGACUGGGCAGAGCUCAACACAGCGUGGCGAAGUGGCUGUGGCUAGACUGCCUCUCUGGAUUCCUCGUCACUCAGCAUGGCAUCUCUGAGAGAAAUGCC [A77G G125U]  2.41
34. UACGUAGGUGGUUUUCCCCUGAUAGUGCUAAGGGGGCCUGGAAGUUUGGACUGGGCAGAGCUCAACACAGCGUGGCGAAGUGGCUGUGGCUAGACUGCCUCUCUGGAUUCCUCGUCACUCAGCAAGGCAUCUCUGAGAGAAAUGCC [A77G G125A]  2.43
35. UACGUAGGUGGUUUUCCCCUGAUAGUGCUAAGGGGGCCUGGAAGUUUGGACUGGGCAGAGCUCAACACAGCGUGGCGAAGUGGCUGUGGCUAGACUGCCUCUCUGGACUCCUCGUCACUCAGCAGGGCAUCUCUGAGAGAAAUGCC [A77G U108C]  2.51
36. UACGUAGGUGGUUUUCCCCUGAUAGUGCUAAGGGGGCCUGGAAGUUUGGACUGGGCAGAGCUCAACACAGCGUGGCGAAGUGGCUGUGGCUAGACUGCCUCUCUGGAUUCCUCGUCACUCAGCAGGGCACCUCUGAGAGAAAUGCC [A77G U130C]  2.56
37. UACGUAGGUGGUUUUCCCCUGAUAGUGCUAAGGGGGCCUGGAAGUUUGGACUGGGCAGAGCUCAACACAGCGUGGCGAAGUGGCUGUGGCUAGACUGCCUCUCUGGAUUCCUCGUCACUCAGCAGGUCAUCUCUGAGAGAAAUGCC [A77G G127U]  2.58
38. UACGUAGGUGGUUUUCCCCUGAUAGUGCUAAGGGGGCCUGGAAGUUUGGACUGGGCAGAGCUCAACACAGCGUGGCGAAGUGGCUGUGGCUAGACUGCCUCACUGGAUUCCUCGUCACUCAGCAGGGCAUCUCUGAGAGAAAUGCC [A77G U102A]  2.63
39. UACGUAGGUGGUUUUCCCCUGAUAGUGCUAAGGGGGCCUGGAAGUUUGGACUGGGCAGAGCUCAACACAGCGUGGCGAAGUGGCUGUGGCUAGACUGCCUCUCUGGAUUCCUCGUCACCCAGCAGGGCAUCUCUGAGAGAAAUGCC [A77G U119C]  2.81
